In the supplement of paper PMC7125110:
± gives the standard error. For some assays here: Variants at the floor of the assay were thinned out.

B1: glmS ribozyme (parent)
chain: AUAAAAGCGCCAGAACUACAGAAAUGUAGUUGACGAGGAGGAGGUUUAUCGAAUUUUCGGCGGAUGCCUCCAAA

What was measured:
Conditions in all cases: with glucosamine-6-phosphate
glucosamine-6-phosphate [1] = variants of: B1; experiment: kcat; higher = faster cleavage; RNA array
How it was run: (§1)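 Barcoded glmS ribozyme variants on sequenced MiSeq chips were transcribed in situ by E. coli RNA polymerase and tracked through a hybridised Cy3 probe at 37 °C. Glucosamine-6-phosphate (40 μM to 10 mM) in HEPES/KCl/Mg(OAc)2 buffer was flowed in, and tiles were imaged over ~14 h. Signals were normalised to baseline and to non-cleaving reference variants; per-tile medians were fit to one- or two-exponential decays to give kobs. kcat and KM came from weighted Michaelis–Menten fits across concentrations.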

glucosamine-6-phosphate [2] = variants of: B1; experiment: KM; higher = weaker cofactor use; RNA array
How it was run: as §1

glucosamine-6-phosphate [3] = variants of: B1; experiment: self-cleavage kobs at 40 uM GlcN6P; higher = faster cleavage; RNA array
How it was run: as §1

glucosamine-6-phosphate [4] = variants of: B1; experiment: self-cleavage kobs at 160 uM GlcN6P; higher = faster cleavage; RNA array
How it was run: as §1

glucosamine-6-phosphate [5] = variants of: B1; experiment: self-cleavage kobs at 640 uM GlcN6P; higher = faster cleavage; RNA array
How it was run: as §1

glucosamine-6-phosphate [6] = variants of: B1; experiment: self-cleavage kobs at 2500 uM GlcN6P; higher = faster cleavage; RNA array
How it was run: as §1

glucosamine-6-phosphate [7] = variants of: B1; experiment: self-cleavage kobs at 10000 uM GlcN6P; higher = faster cleavage; RNA array
How it was run: as §1

| Variant | kcat (glucosamine-6-phosphate [1]) [s⁻¹] | KM (glucosamine-6-phosphate [2]) [µM] | self-cleavage kobs at 40 uM GlcN6P (glucosamine-6-phosphate [3]) [s⁻¹] | self-cleavage kobs at 160 uM GlcN6P (glucosamine-6-phosphate [4]) [s⁻¹] | self-cleavage kobs at 640 uM GlcN6P (glucosamine-6-phosphate [5]) [s⁻¹] | self-cleavage kobs at 2500 uM GlcN6P (glucosamine-6-phosphate [6]) [s⁻¹] | self-cleavage kobs at 10000 uM GlcN6P (glucosamine-6-phosphate [7]) [s⁻¹] |
| --- | --- | --- | --- | --- | --- | --- | --- |
| A14U A53U | 0.00789 ± 0.00051 | 2540 ± 240 | 0.000127 ± 1.2e-05 | 0.000453 ± 9.2e-05 | 0.00157 ± 0.00019 | 0.00355 ± 0.00044 | 0.00654 ± 0.00056 |
| A14U U65C | 8.95e-05 ± 1.3e-05 |  |  |  | 3.59e-05 ± 8.9e-06 | 9.87e-05 ± 1.3e-05 | 7.83e-05 ± 7.7e-06 |
| A14U C58A | 0.000695 ± 4.9e-05 | 2220 ± 300 |  | 5.03e-05 ± 1.2e-05 | 0.000162 ± 3.2e-05 | 0.000346 ± 4.3e-05 | 0.000594 ± 7.5e-05 |
| A14U U47G | 0.00156 ± 0.00026 | 1750 ± 450 | 5.6e-05 ± 8.8e-06 | 0.000115 ± 1.4e-05 | 0.000416 ± 4.8e-05 | 0.000947 ± 0.00011 | 0.00132 ± 0.00013 |
| G13U A33U | 1.31e-05 ± 3.3e-07 | 1490 ± 190 | < 1e-05 | < 1e-05 |  |  |  |
| A14G U49G | 0.00278 ± 0.00095 |  | 7.8e-05 ± 1.6e-05 |  | 0.000937 ± 0.00022 | 0.00109 ± 0.0003 | 0.00302 ± 0.00044 |
| A14U C50U C68A | 3.75e-05 ± 1.4e-05 |  |  |  |  |  | < 1e-05 |
| G13C A33G | < 1e-05 |  |  |  | < 1e-05 |  | < 1e-05 |
| G13A A15C | 0.000242 ± 3.2e-05 | 2680 ± 760 |  |  | 5.24e-05 ± 1.1e-05 | 9.3e-05 ± 2.5e-05 | 0.000198 ± 2.6e-05 |
| A14C C71A | 0.00106 ± 0.00051 |  | 3.61e-05 ± 1.7e-05 | 0.000121 ± 3.2e-05 | 0.000194 ± 3.2e-05 | 0.000353 ± 5.6e-05 | 0.000984 ± 0.00013 |
| A14G G40C | 0.0146 ± 0.0059 |  | 0.000285 ± 5.8e-05 | 0.000739 ± 0.0001 | 0.00301 ± 0.00036 | 0.00549 ± 0.00094 | 0.0168 ± 0.0032 |
| A12U G40A | 0.0133 ± 0.0024 | 1110 ± 310 | 0.000618 ± 0.00017 | 0.00156 ± 0.00048 | 0.0042 ± 0.001 | 0.00929 ± 0.0029 | 0.013 ± 0.0034 |
| A15C | 0.011 ± 0.00069 | 1940 ± 150 | 0.000227 ± 4.1e-06 | 0.00074 ± 5.5e-05 | 0.00248 ± 0.0001 |  | 0.00932 ± 0.00026 |
| A15G | 0.0648 ± 0.0031 | 2180 ± 120 | 0.00118 ± 2.4e-05 | 0.00423 ± 0.00032 | 0.0144 ± 0.00063 | 0.0326 ± 0.0018 | 0.0552 ± 0.0025 |
| A15C C67A | 0.000713 ± 0.00031 |  | 5.14e-05 ± 1.2e-05 | 0.000103 ± 1.7e-05 | 0.000552 ± 0.0001 | 0.000389 ± 0.00012 | 0.000858 ± 0.00022 |
| A15C C67G | 0.0001315 ± 6.7e-07 | 1530 ± 22 |  |  | 3.9e-05 ± 1.4e-05 | 8.12e-05 ± 1.4e-05 | 0.000114 ± 1.8e-05 |

| Variant | kcat (glucosamine-6-phosphate [1]) [s⁻¹] | KM (glucosamine-6-phosphate [2]) [µM] | self-cleavage kobs at 40 uM GlcN6P (glucosamine-6-phosphate [3]) [s⁻¹] | self-cleavage kobs at 160 uM GlcN6P (glucosamine-6-phosphate [4]) [s⁻¹] | self-cleavage kobs at 640 uM GlcN6P (glucosamine-6-phosphate [5]) [s⁻¹] | self-cleavage kobs at 2500 uM GlcN6P (glucosamine-6-phosphate [6]) [s⁻¹] | self-cleavage kobs at 10000 uM GlcN6P (glucosamine-6-phosphate [7]) [s⁻¹] |
| --- | --- | --- | --- | --- | --- | --- | --- |
| A15C C16A G37U C70U C71G | 1.25e-05 ± 2.5e-06 |  |  |  |  |  |  |
| A14C C16A | 6.62e-05 ± 7.2e-06 |  |  |  | 2.75e-05 ± 1.3e-05 | 6.73e-05 ± 1.1e-05 | 5.95e-05 ± 6.9e-06 |
| G13A G29A | 0.000248 ± 8.5e-06 | 4980 ± 320 |  |  |  | 8.32e-05 ± 1.2e-05 | 0.000165 ± 2.4e-05 |
| A14U U45A | 0.0137 ± 0.0043 | 1480 ± 610 | 0.000446 ± 7.7e-05 | 0.00102 ± 0.00029 | 0.00404 ± 0.00082 | 0.00683 ± 0.0026 | 0.0148 ± 0.004 |
| A14C U65G | 0.00175 ± 0.00025 | 4500 ± 1000 |  |  | 0.000206 ± 5.5e-05 | 0.000717 ± 0.00019 | 0.00117 ± 0.00024 |
| G13U G29U C70A | 3.94e-05 ± 1.3e-05 |  |  |  |  | 4.33e-05 ± 1.9e-05 |  |
| A15C C16A C68G | 2.65e-05 ± 7.2e-06 |  |  |  |  | 2.94e-05 ± 1.3e-05 |  |
| A14G A33U | 0.000136 ± 9.7e-06 | 8710 ± 1300 | < 1e-05 |  |  | 3.08e-05 ± 1e-05 | 7.29e-05 ± 7e-06 |
| G13A U69G | 6.29e-05 ± 1.9e-05 |  |  | 4.26e-05 ± 1.5e-05 | 7.5e-05 ± 1.3e-05 | 6.99e-05 ± 1.7e-05 |  |
| A14U C50U | 4.31e-05 ± 1.5e-06 | 1180 ± 170 |  |  |  | 3.01e-05 ± 1.1e-05 | 3.81e-05 ± 1.1e-05 |
| A14G C50U | 0.000229 ± 4.9e-05 | 7960 ± 3000 |  |  | 3.25e-05 ± 1.6e-05 | 5.19e-05 ± 9.6e-06 | 0.000128 ± 1.5e-05 |
| A15C U65C | 7.01e-05 ± 1.5e-05 |  |  |  |  | 9.83e-05 ± 2.2e-05 | 6.14e-05 ± 1e-05 |
| A14U U57A | 6.85e-05 ± 3.9e-06 | 2120 ± 440 |  |  |  | 3.51e-05 ± 1e-05 | 5.69e-05 ± 7.6e-06 |
| A14U C71U | 0.00742 ± 0.0032 |  | 0.000206 ± 3.1e-05 | 0.000492 ± 8.1e-05 | 0.00138 ± 0.00019 | 0.00252 ± 0.00058 | 0.00786 ± 0.00099 |
| A14G C16G | 0.0069 ± 0.0022 |  | 0.000569 ± 8.6e-05 | 0.00113 ± 0.00027 | 0.00514 ± 0.0008 | 0.00397 ± 0.0011 | 0.00854 ± 0.0016 |
| G13C U54G | 0.000222 ± 4.5e-06 | 6040 ± 230 |  |  |  | 6.51e-05 ± 1e-05 | 0.000138 ± 1.7e-05 |
